Reference: paper PMC9475207, “Neural crest cell-placodal neuron interactions are mediated by Cadherin-7 and N-cadherin during early chick trigeminal ganglion assembly” (F1000Research, 2022)

B1: N-cadherin GFP1-10 (natural protein, chick, UniProt P10288 165-912, looked up)
chain: DWVIPPINLPENSRGPFPQELVRIRSDRDKSLSLRYSVTGPGADQPPTGIFIINPISGQLSVTKPLDREQIASFHLRAHAVDVNGNQVENPIDIVINVIDMNDNRPEFLHQVWNGTVPEGSKPGTYVMTVTAIDADDPNAQNGMLRYRILSQAPSSPSPNMFTINNETGDIITVAAGLDREKVQQYTLIIQATDMEGNPTYGLSNTATAVITVTDVNDNPPEFTAMTFYGEVPENRVDVIVANLTVTDKDQPHTPAWNARYQMTGGDPTGQFTILTDPNSNDGLVTVVKPIDFETNRMFVLTVAAENQVPLAKGIQHPPQSTATVSITVIDVNESPYFVPNPKLVRQEEGLLAGSMLTTFTARDPDRYMQQTSLRYSKLSDPANWLKIDPVNGQITTTAVLDRESIYVQNNMYNATFLASDNGIPPMSGTGTLQIYLLDINDNAPQVNPKEATTCETLQPNAINITAVDPDIDPNAGPFAFELPDSPPSIKRNWTIVRISGDHAQLSLRIRFLEAGIYDVPIVITDSGNPHASSTSVLKVKVCQCDINGDCTDVDRIVGAGLGTGAIIAILLCIIILLILVLMFVVWMKRRDKERQAKQLLIDPEDDVRDNILKYDEEGGGEEDQDYDLSQLQQPDTVEPDAIKPVGIRRLDERPIHAEPQYPVRSAAPHPGDIGDFINEGLKAADNDPTAPPYDSLLVFDYEGSGSTAGSLSSLNSSSSGGEQDYDYLNDWGPRFKKLADMYGGGDD
notes: Synthesized by GenScript; also called N-cad GFP1-10; N-cad GFP 1-10; source: CHO cells, transfected, in cells; chick embryo, electroporated in ovo into trigeminal placode cells; not shown: split GFP subunits 1-10 (GFP1-10), N-terminal, kept
B2: Cadherin-7 GFP11 (natural protein, chick, UniProt Q90763 48-785, looked up)
chain: SWVWNQFFVLEEYMGSDPLYVGKLHSDVDKGDGSIKYILSGEGASSIFIIDENTGDIHATKRLDREEQAYYTLRAQAHDRLTNKPVEPESEFVIKIQDINDNEPKFLDGPYTAGVPEMSPVGTSVVQVTATDADDPTYGNSARVVYSILQGQPYFSVEPKTGIIKTALPNMDREAKDQYLLVIQAKDMVGQNGGLSGTTSVTVTLTDVNDNPPRFPRRSYQYNVPESLPLASVVARIKAADADVGPNAEMEYKIVDGDGLGVFKISVDKDTQEGIITIQKELDFEAKTSYTLRIEAANMHVDPRFLSLGPFSDMTTVKIIVEDVDEPPVFTSRLYSMVVSEAAKVGTIIGTVAAHDPDASNSPVRYSIDRNTDLERYFNIDANSGVITTAKSLDRETNAVHNITVLAMESQNPAQIGRGYVAITILDINDNAPEFAMEYETTVCENAQPGQIIQKISAIDKDDPPNGHQFYFSLTAEAANNHNFTLQDNKDNTATVLTRRNGFRRQEQSVFYLPIFIVDSGSPSLSSTNTLTIRVCDCDADGIAQTCNAEAYILPAGLSTGALIAILACVLTLLVLVLLIVTMRRRKKEPLIFDEERDIRENIVRYDDEGGGEEDTEAFDMAALRNLNIIRDTKTRRDVTPEIQFLSRPTFKSIPDNVIFREFIWERLKEADVDPCAPPYDSLQTYAFEGNGSVAESLSSLDSISSNSDQNYDYLSDWGPRFKRLADMYGSGPDCLYS
notes: Synthesized by GenScript; also called Cad7 GFP11; Cad711; source: CHO cells, transfected, in cells; chick embryo, electroporated in ovo into premigratory neural crest cells; not shown: split GFP subunit 11 (GFP11), N-terminal, kept

Tests used:
Test in all cases: split reporter (BiFC, NanoBiT); GRASP (split GFP1-10 / GFP11 on the cadherin extracellular domain); both constructs co-transfected into CHO cells (in cis); GFP fluorescence by confocal imaging, GFP+ cells/DAPI+ cells
Details in all cases: partners not purified
N-cadherin GFP11 = molecular target: T1, N-cadherin GFP11 (chick, UniProt P10288 165-912)
T1 construct: Synthesized by GenScript; also called N-cad GFP11; N-cad GFP 11; source: CHO cells, transfected, in cells; chick embryo, electroporated in ovo into trigeminal placode cells; not shown: split GFP subunit 11 (GFP11), N-terminal, kept
T1 sequence (looked up): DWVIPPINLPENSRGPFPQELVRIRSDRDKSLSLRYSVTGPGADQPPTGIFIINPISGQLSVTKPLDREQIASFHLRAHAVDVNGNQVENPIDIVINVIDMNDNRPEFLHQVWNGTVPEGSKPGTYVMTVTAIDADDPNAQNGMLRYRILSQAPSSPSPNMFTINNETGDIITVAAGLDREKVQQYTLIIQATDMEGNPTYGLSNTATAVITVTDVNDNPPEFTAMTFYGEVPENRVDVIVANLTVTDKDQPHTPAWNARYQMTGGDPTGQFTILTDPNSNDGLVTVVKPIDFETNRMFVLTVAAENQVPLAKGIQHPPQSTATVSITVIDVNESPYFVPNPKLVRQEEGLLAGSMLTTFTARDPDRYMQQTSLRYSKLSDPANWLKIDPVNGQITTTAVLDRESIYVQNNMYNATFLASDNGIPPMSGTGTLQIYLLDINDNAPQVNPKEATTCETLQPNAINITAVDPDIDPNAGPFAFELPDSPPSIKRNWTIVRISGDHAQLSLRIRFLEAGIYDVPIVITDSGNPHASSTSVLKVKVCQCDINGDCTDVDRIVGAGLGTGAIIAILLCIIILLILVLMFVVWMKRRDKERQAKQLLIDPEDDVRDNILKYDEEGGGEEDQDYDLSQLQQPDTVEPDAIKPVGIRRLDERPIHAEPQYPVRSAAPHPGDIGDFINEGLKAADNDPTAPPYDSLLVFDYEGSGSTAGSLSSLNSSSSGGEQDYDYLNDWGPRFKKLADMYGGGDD

Cadherin-7 GFP11 = molecular target: B2
N-cadherin GFP1-10 = molecular target: B1

Binder	percent GFP-positive cells (GFP+ cells/DAPI+ cells) (N-cadherin GFP11) [%]	percent GFP-positive cells (GFP+ cells/DAPI+ cells) (Cadherin-7 GFP11) [%]	percent GFP-positive cells (GFP+ cells/DAPI+ cells) (N-cadherin GFP1-10) [%]
B1	13.2	–	–
Cadherin-7 GFP1-10 (natural protein, chick, UniProt Q90763 48-785, looked up, Synthesized by GenScript; also called Cad7 GFP1-10; source: CHO cells, transfected, in cells; chick embryo, electroporated in ovo into premigratory neural crest cells; not shown: split GFP subunits 1-10 (GFP1-10), N-terminal, kept) SWVWNQFFVLEEYMGSDPLYVGKLHSDVDKGDGSIKYILSGEGASSIFIIDENTGDIHATKRLDREEQAYYTLRAQAHDRLTNKPVEPESEFVIKIQDINDNEPKFLDGPYTAGVPEMSPVGTSVVQVTATDADDPTYGNSARVVYSILQGQPYFSVEPKTGIIKTALPNMDREAKDQYLLVIQAKDMVGQNGGLSGTTSVTVTLTDVNDNPPRFPRRSYQYNVPESLPLASVVARIKAADADVGPNAEMEYKIVDGDGLGVFKISVDKDTQEGIITIQKELDFEAKTSYTLRIEAANMHVDPRFLSLGPFSDMTTVKIIVEDVDEPPVFTSRLYSMVVSEAAKVGTIIGTVAAHDPDASNSPVRYSIDRNTDLERYFNIDANSGVITTAKSLDRETNAVHNITVLAMESQNPAQIGRGYVAITILDINDNAPEFAMEYETTVCENAQPGQIIQKISAIDKDDPPNGHQFYFSLTAEAANNHNFTLQDNKDNTATVLTRRNGFRRQEQSVFYLPIFIVDSGSPSLSSTNTLTIRVCDCDADGIAQTCNAEAYILPAGLSTGALIAILACVLTLLVLVLLIVTMRRRKKEPLIFDEERDIRENIVRYDDEGGGEEDTEAFDMAALRNLNIIRDTKTRRDVTPEIQFLSRPTFKSIPDNVIFREFIWERLKEADVDPCAPPYDSLQTYAFEGNGSVAESLSSLDSISSNSDQNYDYLSDWGPRFKRLADMYGSGPDCLYS	8.9	10.5	–
B2	–	–	5.76
